This passage reports Affinity increase and Kd results from patent US20240279318A1 (NANJING LEGEND BIOTECH, published 2024).

B1: AS170036 VL1VH1 HP58T (scFv)
scFv: QSALTQPRSVSGSPGQSVTISCAGTSSDVGSENYVSWYQQHPGKAPKLMIYQVNKRASGVPDRFSGSKSGNTASLTISGLQAEDEADYYCASYRSSDHNIVFGGGTKLTVLGGGGSGGGGSGGGGSEVQLVESGGGLVQPGGSLRLSCAASGFTFSSYAMSWVRQAPGKGLEWVSTINSGTGSTYYADSVKGRFTISRDNSKNTLYLQMNSLRAEDTAVYYCAKNFFDGSWFLGPPAMDYWGQGTLVTVSSHHHHHH
B2: AS170036 VL1VH1 HP109A (scFv)
scFv: B1 scFv with T184P, P235A
B3: AS170036 VL1VH1 HP110T (scFv)
scFv: B1 scFv with T184P, P236T
B4: AS170036 VL1VH1 HS53T (scFv)
scFv: B1 scFv with S179T, T184P
B5: AS170036 VL1VH1 HP58W (scFv)
scFv: B1 scFv with T184W
B6: AS170036 VL1VH1 HW105F (scFv)
scFv: B1 scFv with T184P, W231F
B7: AS170036 VL1VH1 HS57Y (scFv)
scFv: B1 scFv with S183Y, T184P
B8: AS170036 VL1VH1 HP58Y (scFv)
scFv: B1 scFv with T184Y
B9: AS170036 VL1VH1 HP109T (scFv)
scFv: B1 scFv with T184P, P235T
B10: AS170036 VL1VH1 HS57D (scFv)
scFv: B1 scFv with S183D, T184P
B11: AS170036 VL1VH1 HP58V (scFv)
scFv: B1 scFv with T184V
B12: AS170036 VL1VH1 HP110A (scFv)
scFv: B1 scFv with T184P, P236A
B13: AS170036 VL1VH1 HP110S (scFv)
scFv: B1 scFv with T184P, P236S
B14: AS170036 VL1VH1 HP110L (scFv)
scFv: B1 scFv with T184P, P236L
B15: AS170036 VL1VH1 HP110Q (scFv)
scFv: B1 scFv with T184P, P236Q
B16: AS170036 VL1VH1 HS57N (scFv)
scFv: B1 scFv with S183N, T184P
B17: AS170036 VL1VH1 HP110G (scFv)
scFv: B1 scFv with T184P, P236G
B18: AS170036 VL1VH1 HP109N (scFv)
scFv: B1 scFv with T184P, P235N
B19: AS170036 VL1VH1 HS57W (scFv)
scFv: B1 scFv with S183W, T184P
B20: AS170036 VL1VH1 HS57F (scFv)
scFv: B1 scFv with S183F, T184P
B21: AS170036 VL1VH1 HP110N (scFv)
scFv: B1 scFv with T184P, P236N
B22: AS170036 VL1VH1 HS53A (scFv)
scFv: B1 scFv with S179A, T184P
B23: AS170036 VL1VH1 HS57T (scFv)
scFv: B1 scFv with S183T, T184P
B24: AS170036 VL1VH1 HP110I (scFv)
scFv: B1 scFv with T184P, P236I
B25: AS170036 VL1VH1 HP110V (scFv)
scFv: B1 scFv with T184P, P236V
B26: AS170036 VL1VH1 HS57A (scFv)
scFv: B1 scFv with S183A, T184P
B27: AS170036 VL1VH1 HW105M (scFv)
scFv: B1 scFv with T184P, W231M
B28: AS170036 VL1VH1 HP110E (scFv)
scFv: B1 scFv with T184P, P236E
B29: AS170036 VL1VH1 HP110D (scFv)
scFv: B1 scFv with T184P, P236D
B30: LD97W (scFv)
scFv: B1 scFv with D97W, T184P
notes: AS170036 VL1VH1 scFv mutein
B31: LD97V (scFv)
scFv: B1 scFv with D97V, T184P
notes: AS170036 VL1VH1 scFv mutein
B32: LE32A (scFv)
scFv: B1 scFv with E32A, T184P
notes: AS170036 VL1VH1 scFv mutein
B33: LE32L (scFv)
scFv: B1 scFv with E32L, T184P
notes: AS170036 VL1VH1 scFv mutein
B34: LD97I (scFv)
scFv: B1 scFv with D97I, T184P
notes: AS170036 VL1VH1 scFv mutein
B35: LD97P (scFv)
scFv: B1 scFv with D97P, T184P
notes: AS170036 VL1VH1 scFv mutein
B36: LD97M (scFv)
scFv: B1 scFv with D97M, T184P
notes: AS170036 VL1VH1 scFv mutein
B37: LD97E (scFv)
scFv: B1 scFv with D97E, T184P
notes: AS170036 VL1VH1 scFv mutein
B38: LE32M (scFv)
scFv: B1 scFv with E32M, T184P
notes: AS170036 VL1VH1 scFv mutein
B39: LE32I (scFv)
scFv: B1 scFv with E32I, T184P
notes: AS170036 VL1VH1 scFv mutein
B40: LD97L (scFv)
scFv: B1 scFv with D97L, T184P
notes: AS170036 VL1VH1 scFv mutein
B41: LD97Q (scFv)
scFv: B1 scFv with D97Q, T184P
notes: AS170036 VL1VH1 scFv mutein
B42: LD97Y (scFv)
scFv: B1 scFv with D97Y, T184P
notes: AS170036 VL1VH1 scFv mutein
B43: LE32N (scFv)
scFv: B1 scFv with E32N, T184P
notes: AS170036 VL1VH1 scFv mutein
B44: LE32H (scFv)
scFv: B1 scFv with E32H, T184P
notes: AS170036 VL1VH1 scFv mutein

The term Kd denotes the concentration at which binding is half-saturated. Read a high Kd as weaker binding.

Changes are numbered by the printed parent chain.

For one assay, the target named is T1, AFP158/HLA-A*02:01 complex (human).
T1 construct: biotinylated on the BSP by BirA for ELISA and panning; also called biotinylated AFP158/HLA-A*02:01 complex; Bio-AFP158
In words: SPR; vs AS170036 VL1VH1.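 Note: crude scFv captured on sensor chip, peptide–HLA complex flowed over at several concentrations, KD estimated from association and dissociation kinetic rates.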 A general note: In SPR one partner is held on a chip, and binding of the other changes the refractive index at the surface.
Procedure: (§1) The experiment was carried out as follows. The crude scFv protein were captured onto the sensorchip. Different concentrations (320, 160, 40 nM) of AFP158/HLA-A*02:01 complex flowed over the sensorchip surface, and were allowed to bind the antibody fragment for 100 s followed by injection of the running buffer to allow dissociation of the complex. On-rate (kd) and off-rate (kd) were calculated based on association and dissociation curve, and were used to estimate the equilibrium dissociation constant (KD).
With B1, the Affinity increase was determined as 0.4 fold.

Molecule B2 yielded an Affinity increase of 0.1 fold.

In turn, B3 showed an Affinity increase of 1.3 fold.

In turn, B4 came in with an Affinity increase of 0.4 fold.

On to B5, for which the Affinity increase was found to be 0.1 fold.

Consider B6, for which the Affinity increase came to 0.2 fold.

B7 displayed an Affinity increase of 1.2 fold.

Consider B8, for which the Affinity increase worked out at 0.1 fold.

The molecule B9 gave an Affinity increase of 0.1 fold.

B10: the Affinity increase worked out at 1.2 fold.

Molecule B11 displayed an Affinity increase of 0.2 fold.

Molecule B12 displayed an Affinity increase of 1.3 fold.

B13 had an Affinity increase of 0.8 fold.

Take B14: the Affinity increase is 0.2 fold.

Take B15: the Affinity increase turned out to be 0.9 fold.

For the molecule B16, the Affinity increase stood at 1.5 fold.

With B17, the Affinity increase was 1 fold.

As to B18, the Affinity increase amounted to 0.1 fold.

Consider B19, for which the Affinity increase was found to be 0.6 fold.

B20 yielded an Affinity increase of 1.4 fold.

With B21, the Affinity increase came out at 0.2 fold.

As for B22, the Affinity increase stood at 0.2 fold.

In turn, B23 came in with an Affinity increase of 1.1 fold.

Molecule B24 had an Affinity increase of 0.2 fold.

B25 returned an Affinity increase of 0.6 fold.

The molecule B26 displayed an Affinity increase of 1.2 fold.

As to B27, the Affinity increase was 0.2 fold.

The molecule B28 gave an Affinity increase of 1.8 fold.

Molecule B29 gave an Affinity increase of 0.5 fold.

In a further assay the target is T1, AFP158/HLA-A*02:01 complex. The assay is described as follows: SPR, crude scFv captured.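 Note: Peptide–MHC complex flowed at several concentrations over sensorchip-captured scFv, Kd derived from on- and off-rates obtained from the association and dissociation curves.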
As to B1, the dissociation constant Kd was found to be 750 nM.

As to B2, the Kd stood at 2700 nM.

In turn, B3 gave a Kd of 180 nM.

B4 came in with a Kd of 650 nM.

Turning to B5, the affinity, expressed as Kd, was 2700 nM.

Consider B6, for which binding was put at a Kd of 1400 nM.

The molecule B7 came in with a dissociation constant (Kd) of 200 nM.

As for B8, binding was put at a Kd of 3500 nM.

Consider B9, for which the affinity, expressed as Kd, was 5400 nM.

In the case of B10, binding was put at a Kd of 200 nM.

In turn, B11 had a Kd of 1200 nM.

The molecule B12 displayed an equilibrium dissociation constant (Kd) of 210 nM.

As to B13, the Kd came to 300 nM.

As to B14, the dissociation constant Kd stood at 1500 nM.

B15 returned a Kd of 300 nM.

On to B16, for which the Kd came out at 170 nM.

The molecule B17 registered a Kd of 260 nM.

Turning to B18, the dissociation constant Kd stood at 4500 nM.

Regarding B19, the Kd stood at 380 nM.

Turning to B20, binding was put at a Kd of 180 nM.

On to B21, for which the dissociation constant Kd amounted to 1200 nM.

B22 returned an equilibrium dissociation constant (Kd) of 1200 nM.

For the molecule B23, binding was put at a Kd of 220 nM.

For B24, the Kd worked out at 1500 nM.

Molecule B25 came in with a Kd of 400 nM.

On to B26, for which the affinity, expressed as Kd, was 210 nM.

Molecule B27 yielded an equilibrium dissociation constant (Kd) of 1200 nM.

In turn, B28 yielded a dissociation constant (Kd) of 150 nM.

On to B29, for which binding was put at a Kd of 540 nM.

The next assay concerns the target T2, AFP158/HLA-A*02:01 complex (human).
T2 construct: flowed over the chip in SPR; also called AFP158 pro
In words: SPR, KD ratio to AS170036 VL1VH1.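 Note: crude scFv captured on a sensor chip, peptide–HLA complex passed over at several concentrations, association then buffer dissociation, KD derived from on- and off-rates.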
Consider B30, for which the Affinity increase turned out to be 0.4 fold.

As for B31, the Affinity increase was 0.4 fold.

With B32, the Affinity increase worked out at 0.3 fold.

Regarding B33, the Affinity increase is 0.3 fold.

Regarding B34, the Affinity increase came out at 0.4 fold.

As to B35, the Affinity increase amounted to 0.3 fold.

For B36, the Affinity increase was 0.4 fold.

Consider B37, for which the Affinity increase came to 0.4 fold.

As for B38, the Affinity increase was found to be 0.4 fold.

Take B39: the Affinity increase was determined as 0.3 fold.

Consider B40, for which the Affinity increase turned out to be 0.4 fold.

On to B41, for which the Affinity increase was determined as 0.4 fold.

Take B42: the Affinity increase was determined as 0.4 fold.

Turning to B43, the Affinity increase was found to be 0.4 fold.

Regarding B44, the Affinity increase came out at 0.3 fold.

The next assay deals with T2, AFP158/HLA-A*02:01 complex. In words: SPR, scFv captured, pMHC in flow.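 Note: complex injected at several concentrations over crude scFv, association then running-buffer dissociation, KD estimated from kinetic on- and off-rate constants.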
Procedure: as §1
Regarding B30, binding was characterised by a dissociation constant (Kd) of 570 nM.

On to B31, for which the Kd came out at 660 nM.

B32 returned a Kd of 700 nM.

Turning to B33, the Kd was determined as 980 nM.

As for B34, the affinity, expressed as Kd, was 650 nM.

Regarding B35, the affinity, expressed as Kd, was 790 nM.

For B36, the Kd worked out at 590 nM.

For the molecule B37, the Kd amounted to 690 nM.

B38 had a dissociation constant Kd of 590 nM.

As to B39, the equilibrium dissociation constant (Kd) is 860 nM.

The molecule B40 registered a Kd of 640 nM.

B41 showed a dissociation constant (Kd) of 580 nM.

B42 returned an equilibrium dissociation constant (Kd) of 570 nM.

For the molecule B43, the Kd turned out to be 690 nM.

B44 yielded a Kd of 830 nM.
